# Data reported in PMC6921899, “AtDAT1 Is a Key Enzyme of D-Amino Acid Stimulated Ethylene Production in Arabidopsis thaliana” (Frontiers in Plant Science, 2019).
# Substrate: CSCC[C@@H](N)C(=O)O
# Test: D-Ala formation by UPLC-MS after derivatization; Hofstee linearization
# Assay type: biochemical, Arabidopsis thaliana
# Conditions: pyruvate 50 mM as amino acceptor, standard assay: potassium phosphate 100 mM pH 8, PLP 50 µM, 37 °C
protein,measurement,value
"AtDAT1(Col-0) (Arabidopsis thaliana) (protein, N-terminal GST tag and C-terminal His tag (pGEX-2TM-GW); E. coli BL21(DE3) RIL; Ni-NTA purified) MAGLSLEFTVNTWNLRSLSQVPCPLRHGFRFPRRLTRRRTILMCSDSSSQSWNVPVLSSYEVGERLKLARGGQQFLAMYSSVVDGITTDPAAMVLPLDDHMVHRGHGVFDTALIINGYLYELDQHLDRILRSASMAKIPLPFDRETIKRILIQTVSVSGCRDGSLRYWLSAGPGDFLLSPSQCLKPTLYAIVIKTNFAINPIGVKVVTSSIPIKPPEFATVKSVNYLPNVLSQMEAEAKGAYAGIWVCKDGFIAEGPNMNVAFVVNGGKELVMPRFDNVLSGCTAKRTLTLAEQLVSKGILKTVKVMDVTVEDGKKADEMMLIGSGIPIRPVIQWDEEFIGEGKEGPIAKALLDLLLEDMRSGPPSVRVLVPY",Km,17.4 mM
